# B1: ATP-dependent protease ATPase subunit HslU (Escherichia coli (strain K12)), P0A6H5 (parent)
# chain: MSEMTPREIVSELDKHIIGQDNAKRSVAIALRNRWRRMQLNEELRHEVTPKNILMIGPTGVGKTEIARRLAKLANAPFIKVEATKFTEVGYVGKEVDSIIRDLTDAAVKMVRVQAIEKNRYRAEELAEERILDVLIPPAKNNWGQTEQQQEPSAARQAFRKKLREGQLDDKEIEIDLAAAPMGVEIMAPPGMEEMTSQLQSMFQNLGGQKQKARKLKIKDAMKLLIEEEAAKLVNPEELKQDAIDAVEQHGIVFIDEIDKICKRGESSGPDVSREGVQRDLLPLVEGCTVSTKHGMVKTDHILFIASGAFQIAKPSDLIPELQGRLPIRVELQALTTSDFERILTEPNASITVQYKALMATEGVNIEFTDSGIKRIAEAAWQVNESTENIGARRLHTVLERLMEEISYDASDLSGQNITIDADYVSKHLDALVADEDLSRFIL
# partner: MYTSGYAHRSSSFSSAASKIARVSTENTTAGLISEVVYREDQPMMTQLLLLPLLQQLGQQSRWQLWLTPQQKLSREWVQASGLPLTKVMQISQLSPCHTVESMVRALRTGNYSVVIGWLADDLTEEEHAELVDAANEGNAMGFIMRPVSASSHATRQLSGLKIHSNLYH
# Variants of: B1
# Details: with sula_ecoli sulA
row,Variant,effect of a mutation on the interaction
1,V89I,increasing interaction strength
2,I186N,disrupting interaction strength
